The values below come from patent publication US20030061635A1, “Pollen-specific novel calmodulin-binding protein, NPG1 (No Pollen Germination1), promoter, coding sequences and methods for using the same” (priority 2001, published 2003).

One experiment deals with 35S-labeled AtCaM. In words: Blot overlay of bacterially expressed maize NPG1 fusion proteins with 35S-CaM. The experiment is classed as binding, Arabidopsis thaliana. Particulars: in the presence of EGTA. As for the experimental part: The 1.2-kb cDNA insert (named P3) containing the coding region for 242 amino acids in the carboxyl-terminal region was cloned in-frame into a pET28b expression vector. For mapping the CaM-binding domain, several truncated constructs were prepared in a pET vector. The P3 cDNA in pET28 was digested with either NcoI or BamHI to release a 168- or 717-bp fragment corresponding to the 5′ end of the cDNA. The NcoI and BamHI fragments were cloned into pET28b vector digested with the respective enzymes to generate P3/NcoI and P3/BamHI clones. The P3 clones lacking either NcoI or BamHI fragments were religated to generate PΔNcoI and PΔBamHI expression clones. […]
Soluble and insoluble proteins from the induced and un-induced cultures were separated on 12% SDS-polyacrylamide gels and blotted as described above. […] Binding to biotinylated CaM was detected by blocking the blots in 3% gelatin in TBS/Ca/Mg or TBS/EGTA/Mg (50 mM Tris-HCl, pH 7.5, 50 mM MgCl2, 150 mM NaCl, and 5 mM of either CaCl2 or EGTA) at 30° C. […] The blots were then incubated in Vectastain ABC.HRP in TBS/Ca/Mg or TBS/EGTA/Mg for 30 min, washed 3 times, 10 min each, with the above buffer and the CaM-binding proteins were detected colorimetrically in a substrate solution (0.8 mg/ml diaminobenzidine, 0.4 mg/ml NiCl2, and 0.009% H2O2 in 100 mM Tris-HCl, pH 7.5).

A further experiment has as its target T1, biotinylated CaM (Bos taurus, UniProt P62157).
T1 construct: purchased Calbiochem-Novabiochem (San Diego, Calif.)
In words: Blot overlay of fusion proteins with biotinylated CaM. The experiment is classed as binding. Particulars: in the presence of Ca2+. The method, then: Soluble and insoluble proteins from the induced and un-induced cultures were separated on 12% SDS-polyacrylamide gels and blotted as described above. To detect the binding of the expressed proteins to ^35S-labeled AtCaM, duplicate blots were blocked for 15 min in TBS (50 mM Tris-HCl, pH 7.5, 150 mM NaCl) containing 5 mM of either CaCl2 or EGTA and 1% nonfat dry milk. The blots were then incubated for 12 h in a mixture of ^35S-labeled AtCaM isoforms at […] in the same buffers as above. The filters were then washed with the corresponding buffer and dried before exposing to X-ray film. Binding to biotinylated CaM was detected by blocking the blots in 3% gelatin in TBS/Ca/Mg or TBS/EGTA/Mg (50 mM Tris-HCl, pH 7.5, 50 mM MgCl2, 150 mM NaCl, and 5 mM of either CaCl2 or EGTA) at 30° C. The blots were then incubated in […] biotinylated CaM for 2 h in TBS/Ca/Mg or TBS/EGTA/Mg containing 0.1% Tween 20 and 1% gelatin followed by three washes of 10 min each in the corresponding buffers above. The blots were then incubated in Vectastain ABC.HRP in TBS/Ca/Mg or TBS/EGTA/Mg for 30 min, washed 3 times, 10 min each, with the above buffer and the CaM-binding proteins were detected colorimetrically in a substrate solution (0.8 mg/ml diaminobenzidine, 0.4 mg/ml NiCl2, and 0.009% H2O2 in 100 mM Tris-HCl, pH 7.5).

Experiment [1] has as its target T2, HRP-CaM (Arabidopsis CaM2) (Arabidopsis thaliana, UniProt P0DH97).
T2 construct: made in house; host or cells: E. coli BL21(DE3)
In words: HRP-CaM blot overlay assay. The experiment is classed as binding. The method, then: (§1) HRP was conjugated to CaM and used in blot overlay assays according to the procedure described by Lee et al. (1999) BBA 1433:56-67. Briefly, the Arabidopsis CaM2 was incubated in 25 mM Tris-HCl, pH 7, 2 mM EGTA, and 0.1 M DTT at 55° C. for 1.5 h and the reduced CaM was extensively dialyzed against phosphate-buffered saline at 4° C. Maleimide-activated HRP (Pierce Biotechnology, Inc., Rockford, Ill.) and reduced CaM were incubated at a molar ratio of 1:1 in phosphate-buffered saline at room temperature for 1.5 h. The resulting HRP-CaM complex was verified on a denaturing gel and used in blot-overlay assays. Protein blots were prepared as described above, rinsed in TBST (TBS containing 0.1% (v/v) Tween 20), and blocked by incubating in TBST plus 7% (w/v) non-fat dry milk overnight. The blocked membranes were washed three times, 5 min each, with TBST. […] The proteins that bound to HRP-CaM were detected by immersing the blots in a substrate solution as above.
Maize pollen proteins were extracted in a buffer containing 50 mM Tris-HCl, pH 7.4, 250 mM sucrose, 5 mM DTT, and complete protease inhibitor mixture. […] The absorbance of the eluted fractions was recorded at 235 and 280 nm to compare the elution profile of protein with EGTA. […]

For the next experiment, the target named is T3, CaM-Sepharose (Bos taurus, UniProt P62157).
T3 construct: purchased Amersham Pharmacia Biotech UK Ltd., Little Chalfont, Buckinghamshire, UK
In words: Native NPG1 from maize pollen on CaM-Sepharose column / pull-down with CaM-Sepharose beads. Particulars: bound with Ca2+, eluted with EGTA; maize pollen extract. The experiment is classed as binding, bovine. The method, then: Maize pollen proteins were extracted in a buffer containing 50 mM Tris-HCl, pH 7.4, 250 mM sucrose, 5 mM DTT, and complete protease inhibitor mixture. The extract was first centrifuged at 14,000×g for 20 min and then at 100,000×g for 15 min at 4° C. to obtain the supernatant containing soluble proteins. Prior to loading the supernatant onto the CaM-Sepharose column (Amersham Pharmacia Biotech UK Ltd., Little Chalfont, Buckinghamshire, UK) the concentration of Ca^2+ was adjusted to 1.25 mM. The flow-through was collected and saved. The column was washed thoroughly with binding buffer (50 mM Tris-HCl, pH 7.5, 150 mM NaCl, 1.25 mM CaCl2) to remove unbound proteins. Washes equivalent to 1-bed volume of the column were collected and saved. The CaM-binding proteins were eluted with elution buffer (50 mM Tris-HCl, pH 7.5, 150 mM NaCl, 5 mM EGTA). The absorbance of the eluted fractions was recorded at 235 and 280 nm to compare the elution profile of protein with EGTA. Initial soluble extract, flow-through, wash fraction, and eluted protein were separated on three denaturing gels. One gel was stained with Coomassie Blue and the other two were blotted onto nitrocellulose membranes and probed with NPG1-specific antibody or HRP-CaM.
[…] of pollen soluble proteins prepared as described above were mixed and incubated with 0.2 ml of CaM-Sepharose beads at room temperature for 30 min. […]

For experiment [2], the system named is Arabidopsis CaM isoform-2, -4 and -6. In words: Blot overlay of purified AtNPG1 with horseradish peroxidase labeled Arabidopsis CaM isoforms. The experiment is classed as binding, Arabidopsis thaliana. Particulars: absence or presence of calcium. As for the experimental part:
as §1, with “TBST. After equilibration in the overlay buffer (50 mM imidazole-HCl, pH 7.5, and 150 mM NaCl) for 1 h, the membranes were incubated for 1 h in overlay buffer containing 0.1% gelatin and […] HRP-CaM. The HRP-CaM overlay blots were washed sequentially in three buffers. Wash with each buffer was performed five times for 5 min each.” for “TBST.”, “above. […]” for “above.”

A further experiment relates to CaM-Sepharose beads. Kind of experiment: Bacterially expressed AtNPG1 binding to CaM-Sepharose beads. Particulars: eluted with EGTA-containing buffer. The method, then:
A 2.0 kb EcoRI fragment of AtNPG1 cDNA containing the entire coding region was subcloned into pET28a and the orientation of the cDNA was confirmed by restriction analysis and sequencing. Induction of fusion protein, its purification on CaM Sepharose column and detection with horseradish peroxidase CaM isoforms was performed essentially as described earlier (Reddy and Reddy (2000) J. Biol. Chem. 275:35457-35470).

B1: NPG1: maize pollen-specific calmodulin-binding protein, 659 amino acid residues, about 72 kDa, SEQ ID NO:1 (protein)
chain: MPLIRYYVDHVHVAVEARALLGRLEFQKGNVEVALRVFDGIDLQAAIQQFQPSLSDKTPSKKGRTKSEIPSSVPQNNPASLVLEAIYLKSLSLQKLGKSTEAANQCKSVLDSVESIFQNGAPDIEQKLQETVNKSVELLPEAWKHAGSNQEALASYRRALLSPWNLDDECRTRVQKRFASFLLYXTNIDWSPPSMAQQVEGCFVPKNSVEEAVLLLMVVLRSWYQGKTHWDPSVMEHLTYALSLCGEPLVLAKQLEEVLPGVYPRTERWATLALCYYVAGQKDVALNFLRKSLNKLENPNDVLALLLAAKICSKERHLASEGVEYARRVIACAESSDPHLKSVGLHFLGSCLGNKSKVVSSDYQRSLLQTETLKSFAESIGLNRYNADLIFDMGVEYAEQRNMNAALRCAKEFIEATGGSVSKGWRLLALILSAQQRFSEAEVATDAALDETAKLDQGSLLRVKAKLKVAQSSPMEAVEAYRALLALVQAQKNSPGGSCKSATEDADGSVSEFEIWQGLANLYSSLSYWRDAEICLNKARALKLYSAATLHAEGYMHEARDQTTDALAAYVNAFSTELEHVPSKVAIGAMLSKQGPRFLPAARCFLSDALRVEPTNRMAWLYLGKVHRSDGRISDAADCFQAAVMLEESDPVESFSSLS
modifications: X: residue not identified in the source
Consider B1, for which, in the experiment on 35S-labeled AtCaM, the “binding to CaM” value is “No binding to CaM was observed”. The “binding to biotinylated CaM” value in the experiment with biotinylated CaM was “did not bind to biotinylated CaM”. The “detection by HRP-CaM in blot overlay” value in experiment [1] is “also detected by HRP-CaM”. Also, in the experiment with CaM-Sepharose, the “binding of native protein to CaM-Sepharose” value is listed as “binds CaM in the presence of Ca^2+”.

B2: AtNPG1: Arabidopsis NPG1, protein of 704 amino acids, SEQ ID NO:10, bacterially expressed as T7 tag fusion (protein, listed as Arabidopsis thaliana)
chain: MLGNQSADFSEKGEDEIVRQLCANGICMKTTEVEAKLDEGNIQEAESSLREGLSLNFEEARALLGRLEYQRGNLEGALRVFEGIDLQAAIQRLQVSVPLEKPATKKNRPREPQQSVSQHAANLVLEAIYLKAKSLQKLGRITEAAHECKSVLDSVEKIFQQGIPDAQVDNKLQETVSHAVELLPALWKESGDYQEAISAYRRALLSQWNLDNDCCARIQKDFAVFLLHSGVEASPPSLGSQIEGSYIPRNNIEEAILLLMILLKKFNLGKAKWDPSVFEHLTFALSLCSQTAVLAKQLEEVMPGVFSRIERWNTLALSYSAAGQNSAAVNLLRKSLHKHEQPDDLVALLLAAKLCSEEPSLAAEGTGYAQRAINNAQGMDEHLKGVGLRMLGLCLGKQAKVPTSDFERSRLQSESLKALDGAIAFEHNNPDLIFELGVQYAEQRNLKAASRYAKEFIDATGGSVLKGWRFLALVLSAQQRFSEAEVVTDAALDETAKWDQGPLLRLKAKLKISQSNPTEAVETYRYLLALVQAQRKSFGPLRTLSQMEEDKVNEFEVWHGLAYLYSSLSHWNDVEVCLKKAGELKQYSASMLHTEGRMWEGRKEFKPALAAFLDGLLLDGSSVPCKVAVGALLSERGKDHQPTLPVARSLLSDALRIDPTNRKAWYYLGMVHKSDGRIADATDCFQAASMLEESDPIESFSTIL
modifications: T7 tag fusion
For the molecule B2, in experiment [2], the “binding to Arabidopsis CaM isoforms in blot overlay” value was “bound three Arabidopsis CaM isoforms in a calcium-dependent manner”. Further, the “binding to CaM-Sepharose beads” value in the experiment on CaM-Sepharose beads is given as “bound CaM-Sepharose beads in a calcium-dependent manner”.
